Measurements published in paper PMC7376121, “In-Lipid Structure of Pressure-Sensitive Domains Hints Mechanosensitive Channel Functional Diversity” (Biophysical Journal, 2020).
Substitutions are numbered along the chain they refer to. Numbers in names are those of the source.

B1: Escherichia coli MscL F93C, MTSSL spin-labelled (EcMscL F93R1) (natural protein, UniProt P0A742 1-136, looked up)
chain: MSIIKEFREFAMRGNVVDLAVGVIIGAAFGKIVSSLVADIIMPPLGLLIGGIDFKQFAVTLRDAQGDIPAVVMHYGVFIQNVFDFLIVAFAICMAIKLINKLNRKKEEPAAAPAPTKEEVLLTEIRDLLKEQNNRS
modifications: MTSSL spin label on the cysteine at 93 (R1)
notes: Mechanosensitive channel of large conductance (MscL), Escherichia coli; cysteine mutant on vector pET-52b; R1 denotes the spin-labelled cysteine; also called EcF93R1; source: E. coli BL21 (DE3), purified (Ni-NTA, SEC) in DDM, MTSSL spin-labelled; also reconstituted in MSP1D1 DMPC nanodisks
B2: Escherichia coli MscL M94C, MTSSL spin-labelled (EcMscL M94R1) (natural protein, UniProt P0A742 1-136, looked up)
chain: B1 chain with C93F, M94C
modifications: MTSSL spin label on the cysteine at 94 (R1)
notes: Mechanosensitive channel of large conductance (MscL), Escherichia coli; cysteine mutant on vector pET-52b; R1 denotes the spin-labelled cysteine; possibly a pentamer in DDM; also called EcM94R1; EcM94C; source: E. coli BL21 (DE3), purified (Ni-NTA, SEC) in DDM, MTSSL spin-labelled; also reconstituted in MSP1D1 DMPC nanodisks

Target: the molecule itself
Experiment: PELDOR/DEER; spin-labelled single-cysteine channel in DDM detergent solution (50 mM sodium phosphate pH 7.5, 300 mM NaCl, 0.05% DDM), diluted 1:1 with deuterated ethylene glycol, flash frozen; Q band, 50 K; distances between the labels of the subunits of one channel

Row | Protein | stoichiometry N | binding result
1 | B1 | 5 | 
2 | B2 |  | binds
